Data reported in the supplement of paper PMC7877785.
± gives the uncertainty stated by the source.

Experiment: self-splicing fitness, log relative to wild type (ln ratio); higher = more splicing; Tetrahymena group I intron in knt gene, E. coli kanamycin selection, DiMSum; sequences stand for … in CUCUCU…GGAGGGAAAAGUUAUCAGGCAUGCACCUGGUAGCUAGUCUUUAAACCAAUAGAUUGCAUCGGUUUAAAAGGCAAGACCGUCAAAUUGCGGGAAAGGGGUCAACAGCCGUUCAGUACCAAGUCUCAGGGGAAACUUUGAGAUGGCCUUGCAAAGGGUAUGGUAAUAAGCUGACGGACAUGGUCCUAACCACGCAGCCAAGUCCUAAGUCAACAGAUCUUCUGUUGAUAUGGAUGCAGUUCACAGACUAAAUGUCGGUCGGGGAAGAUGUAUUCUUCUCAUAAGAUAUAGUCGGACCUCUCCUUAAUGGGAGCUAGCGGAUGAAGUGAUGCAACACUGGAGCCGCUGGGAACUAAUUUGUAUGCGAAAGUAUAUUGAUUAGUUUUGGAGUACUCGUGGUCG
Procedure, shortened: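 Six replicate transformations of E. coli BL21(DE3) with a pET-22b(+) library were grown overnight at 37°C or 30°C. The library randomised all eight P1ex-region intron nucleotides, the intron lying in the knt kanamycin-resistance gene, and plates were LB agar with or without 25 μg/mL kanamycin plus 100 μg/mL carbenicillin, 50 μM IPTG and 0.2% rhamnose. Pooled colonies were amplicon-sequenced on an Illumina HiSeq 2500, and fitness is the DiMSum error-weighted combination of wild-type-normalised replicate fold changes, kanamycin versus none.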

Sequence | self-splicing fitness (ln) (30 °C) | self-splicing fitness (ln) (37 °C)
GUGAAGCAAUAUUACGUGGA | -3.07 ± 0.13 | -1.24 ± 0.15
GUGAAGCAAUAUUACGUGUU | -2.74 ± 0.1 | -1.23 ± 0.085
GUGAAGCAAUAUUACGUUCG | -0.236 ± 0.095 | -0.797 ± 0.1
GUGCAGCAAUAUUACGACGG | – | -2.73 ± 0.34
GUGCAGCAAUAUUACGAGCC | -1.65 ± 0.2 | –
GUGCAGCAAUAUUACGCAGG | -2.59 ± 0.12 | -3.12 ± 0.18
GUGCAGCAAUAUUACGCGCU | -3.16 ± 0.48 | -1.77 ± 0.36
GUGCAGCAAUAUUACGCUCA | -1.31 ± 0.1 | -0.388 ± 0.11
GUGCAGCAAUAUUACGCUGC | -2.77 ± 0.18 | -2.14 ± 0.35
GUGCAGCAAUAUUACGGACU | -1.28 ± 0.11 | -0.884 ± 0.14
GUGCAGCAAUAUUACGGAUA | -1.76 ± 0.15 | -1.79 ± 0.19
GUGCAGCAAUAUUACGGCUC | -0.0701 ± 0.085 | -0.129 ± 0.1
GUGCAGCAAUAUUACGGGAU | -1.66 ± 0.066 | -1.32 ± 0.081
GUGCAGCAAUAUUACGGUAA | -1.5 ± 0.18 | 0.218 ± 0.14
GUGCAGCAAUAUUACGGUAG | -1.05 ± 0.057 | -0.428 ± 0.074
GUGCAGCAAUAUUACGGUGU | -3.08 ± 0.11 | -1.74 ± 0.12
GUGCAGCAAUAUUACGUAAU | -0.833 ± 0.06 | 0.129 ± 0.079
GUGCAGCAAUAUUACGUAGA | -2.02 ± 0.087 | -0.647 ± 0.11
GUGCAGCAAUAUUACGUCAC | – | -2.14 ± 0.21
GUGGAGCAAUAUUACGACGU | -1.15 ± 0.14 | 0.0174 ± 0.16
GUGGAGCAAUAUUACGAUCA | -2.19 ± 0.49 | -0.101 ± 0.2
GUGGAGCAAUAUUACGAUCU | -2.68 ± 0.15 | -2.6 ± 0.22
GUGGAGCAAUAUUACGCACA | -0.729 ± 0.22 | -0.814 ± 0.33
GUGGAGCAAUAUUACGCCGA | -3.41 ± 0.43 | -1.25 ± 0.28
GUGGAGCAAUAUUACGCGUC | -2.82 ± 0.35 | -1.76 ± 0.47
GUGGAGCAAUAUUACGGAAC | – | -0.66 ± 0.45
GUGGAGCAAUAUUACGGACC | -1.56 ± 0.38 | –

Sequence | self-splicing fitness (ln) (30 °C) | self-splicing fitness (ln) (37 °C)
GUGGAGCAAUAUUACGGAGU | -3.56 ± 0.31 | -2.25 ± 0.29
GUGGAGCAAUAUUACGGCGC | -1.42 ± 0.27 | -0.0496 ± 0.26
GUGGAGCAAUAUUACGGGGC | -3.48 ± 0.48 | -1.93 ± 0.31
GUGGAGCAAUAUUACGUGCG | -2.23 ± 0.15 | -2.9 ± 0.29
GUGGAGCAAUAUUACGUGCU | -3.68 ± 0.2 | -3.09 ± 0.4
GUGGAGCAAUAUUACGUGGG | -2.28 ± 0.13 | -2.7 ± 0.33
GUGGAGCAAUAUUACGUUAG | -3.94 ± 0.24 | -2.35 ± 0.2
GUGUAGCAAUAUUACGAAAG | -2.33 ± 0.24 | -1.4 ± 0.42
GUGUAGCAAUAUUACGAAGC | -2.07 ± 0.17 | -0.684 ± 0.23
GUGUAGCAAUAUUACGAGGA | -2.9 ± 0.44 | –
GUGUAGCAAUAUUACGCCUA | -1.92 ± 0.26 | -0.813 ± 0.24
GUGUAGCAAUAUUACGCGAC | -1.33 ± 0.45 | -1.02 ± 0.27
GUGUAGCAAUAUUACGCUCG | -1 ± 0.18 | -0.53 ± 0.21
GUGUAGCAAUAUUACGCUGC | -3.26 ± 0.27 | -1.08 ± 0.23
GUGUAGCAAUAUUACGCUUU | -3.2 ± 0.21 | -2.54 ± 0.22
GUGUAGCAAUAUUACGGCCC | 0.713 ± 0.23 | 0.583 ± 0.3
GUGUAGCAAUAUUACGGCUG | -3.23 ± 0.23 | -1.28 ± 0.25
GUGUAGCAAUAUUACGGGCG | -2.61 ± 0.27 | -1.21 ± 0.18
GUGUAGCAAUAUUACGGUGC | -2.8 ± 0.21 | -2.18 ± 0.18
GUGUAGCAAUAUUACGUAAG | -1.56 ± 0.1 | -1.57 ± 0.16
GUGUAGCAAUAUUACGUCGA | -1.11 ± 0.14 | -0.586 ± 0.12
GUGUAGCAAUAUUACGUCGG | -2.7 ± 0.24 | -2.73 ± 0.33
GUGUAGCAAUAUUACGUGUU | -3.14 ± 0.17 | -1.58 ± 0.12
GUGUAGCAAUAUUACGUUCU | -0.842 ± 0.09 | 0.00858 ± 0.11
GUGUAGCAAUAUUACGUUGA | -1.73 ± 0.14 | -3.07 ± 0.36
GUUAAGCAAUAUUACGACCC | – | -0.221 ± 0.44
GUUAAGCAAUAUUACGACCG | -2.84 ± 0.48 | -1.22 ± 0.4

Sequence | self-splicing fitness (ln) (30 °C) | self-splicing fitness (ln) (37 °C)
GUUAAGCAAUAUUACGAUAG | – | -2.07 ± 0.34
GUUAAGCAAUAUUACGAUCC | -1.62 ± 0.13 | 0.0862 ± 0.16
GUUAAGCAAUAUUACGCACC | -2.89 ± 0.3 | -2.13 ± 0.32
GUUAAGCAAUAUUACGCCCA | 0.115 ± 0.22 | -0.355 ± 0.29
GUUAAGCAAUAUUACGCGUU | -0.757 ± 0.08 | -1.07 ± 0.12
GUUAAGCAAUAUUACGGAAC | – | -1.43 ± 0.34
GUUAAGCAAUAUUACGGAAU | -2.75 ± 0.14 | -1.39 ± 0.13
GUUAAGCAAUAUUACGGACU | -2.88 ± 0.2 | -1.8 ± 0.2
GUUAAGCAAUAUUACGGGGU | -2.73 ± 0.28 | -2.88 ± 0.35
GUUAAGCAAUAUUACGGUAA | -1.5 ± 0.15 | -1.28 ± 0.14
GUUAAGCAAUAUUACGGUGA | -1.86 ± 0.15 | -1.09 ± 0.12
GUUAAGCAAUAUUACGUAAG | -0.147 ± 0.098 | -0.0396 ± 0.13
GUUAAGCAAUAUUACGUCCU | -0.303 ± 0.081 | 0.0564 ± 0.083
GUUAAGCAAUAUUACGUUCG | -1.6 ± 0.13 | -0.376 ± 0.16
GUUCAGCAAUAUUACGACGU | 0.000808 ± 0.063 | 0.108 ± 0.08
GUUCAGCAAUAUUACGAUCA | -1.81 ± 0.19 | -0.536 ± 0.14
GUUCAGCAAUAUUACGAUCG | -0.518 ± 0.13 | -0.548 ± 0.16
GUUCAGCAAUAUUACGAUUU | -0.241 ± 0.078 | 0.331 ± 0.087
GUUCAGCAAUAUUACGCAUG | -0.538 ± 0.1 | -1.02 ± 0.13
GUUCAGCAAUAUUACGCCAA | -1.32 ± 0.21 | -1.72 ± 0.18
GUUCAGCAAUAUUACGCUCA | -0.457 ± 0.11 | -0.298 ± 0.13
GUUCAGCAAUAUUACGCUCU | -0.149 ± 0.09 | 0.0537 ± 0.097
GUUCAGCAAUAUUACGCUUU | -0.726 ± 0.088 | 0.0124 ± 0.11
GUUCAGCAAUAUUACGGCAC | -0.46 ± 0.21 | 0.473 ± 0.24
GUUCAGCAAUAUUACGGCCC | -0.59 ± 0.19 | 0.24 ± 0.24
